This is an account of results in patent US20240327509A1, “HUMAN CXCLI6 ANTIBODIES AND THE USE THEREOF” (CELLUS,INC., priority 2021, published 2024).

The target of this assay is T1, Recombinant human CXCL16 (rhCXCL16) protein (human, UniProt Q9H2A7 30-118, limits assumed).
T1 construct: Bought recombinant protein (976-CX, R&D systems); also called CXCL16 antigen; 976-CX (R&D systems)
T1 sequence: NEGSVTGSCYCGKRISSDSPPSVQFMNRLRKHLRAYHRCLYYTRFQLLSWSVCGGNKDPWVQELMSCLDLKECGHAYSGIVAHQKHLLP
The experiment in a line: BLI (ForteBio), antibody captured on biosensor, rhCXCL16 in solution. Here is the method: The binding characteristics of 25 CXCL16 antibodies were analyzed using the bio-light interferometry (ForteBio). All antibodies were diluted in freshly prepared running buffer. Antibodies were immobilized onto the surface of a series of biosensors using the capture methods at 0.3 μg/mL. Recombinant human CXCL16 (rhCXCL16) protein (100 nM) was passed over the surface to generate a binding response for 10 minutes. Binding data for the antibody and antigen interactions were collected at 25° C. on the biosensors. Then, the running buffer was passed for 10 minutes to dissociate them. The association constant (kₐ) and the dissociation constant (kₐ) were observed, and the equilibrium binding constant (KD) was calculated. […] R2: The value indicating how well the fit and experimental data correlate; X²: The measure of error between the experimental data and fitted line.

B1: HC3LC3 (antibody, human IgG1, kappa, V domains shown)
VH: EVQLVESGGGLVQPGGSLKLSCAASGFTFSNAVMNWVRQAPGKGLEWVGRIRTKPNNYATFYADSVKGRFTFSRDDSKNTAYLQMNILKTEDTAMYYCTAWTTEGIYWGQGTTVTVSS
VL: DIQMTQSPSSLSASVGDRVTITCKSSQSLLYSGNQKNYLAWYQQKPGQSPKLLIYWASTRQSGVPDRFSGSGSGTDFTLTISSLQAEDFATYYCQQYYDTPWTFGGGTKVEIKR
notes: Humanized variant; human IgG1 / kappa constant domains
Turning to B1, the binding result is “no binding (tested: 100 nM rhCXCL16)”.

B2: HC3LC4 (antibody, human IgG1, kappa, V domains shown)
VH: EVQLVESGGGLVQPGGSLKLSCAASGFTFSNAVMNWVRQAPGKGLEWVGRIRTKPNNYATFYADSVKGRFTFSRDDSKNTAYLQMNILKTEDTAMYYCTAWTTEGIYWGQGTTVTVSS
VL: DIQMTQSPSSLSASVGDRVTITCKSSQSLLYSGNQKNYLAWYQQKPGQSPKLLIYWASTRQSGVPSRFSGSGSGTDFTLTISSLQPEDLAIYYCQQYYDTPWTFGGGTKLELKR
notes: as for B1
Regarding B2, the binding result is on record as “no binding (tested: 100 nM rhCXCL16)”.

B3: HC1LC5 (antibody, human IgG1, kappa, V domains shown)
VH: QVQLVESGGGVVQPGGSLRLSCAASGFTFSNAVMNWVRQAPGKGLEWVARIRTKPNNYATFYADSVKGRFTFSRDNSKTMLYLQMNSLRAEDTAVYYCTAWTTEGIYWGQGTLVTVSS
VL: DIVMTQSPSSLAVSAGERATINCKSSQSLLYSGNQKNYLAWYQQKPGQSPKLLIYWASTRQSGVPDRFIGSGSGTDFTLTISSLQAEDVAIYYCQQYYDTPWTFGGGTKLELKR
notes: as for B1
Consider B3, for which the binding result is listed as “no binding (tested: 100 nM rhCXCL16)”.

B4: HC4LC4 (antibody, human IgG1, kappa, V domains shown)
VH: EVQLVESGGGLVKPGGSLRLSCAASGFTFSNAVMNWVRQAPGKGLEWVARIRTKPNNYATFYADSVKGRFTFSRDDSKNTLYLQMNSLKTEDTAVYYCTAWTTEGIYWGQGTTVTVSS
VL: DIQMTQSPSSLSASVGDRVTITCKSSQSLLYSGNQKNYLAWYQQKPGQSPKLLIYWASTRQSGVPSRFSGSGSGTDFTLTISSLQPEDLAIYYCQQYYDTPWTFGGGTKLELKR
notes: as for B1
In the case of B4, the binding result is on record as “no binding (tested: 100 nM rhCXCL16)”.

B5: HC4LC2 (antibody, human IgG1, kappa, V domains shown)
VH: EVQLVESGGGLVKPGGSLRLSCAASGFTFSNAVMNWVRQAPGKGLEWVARIRTKPNNYATFYADSVKGRFTFSRDDSKNTLYLQMNSLKTEDTAVYYCTAWTTEGIYWGQGTTVTVSS
VL: DIVMTQSPSSLAVSLGETATINCKSSQSLLYSGNQKNYLAWYQQKPGQPPKLLIYWASTRQSGVPDRFTGSGAGTDFTLTISSVQAEDLAIYYCQQYYDTPWTFGGGTKVEIKR
notes: as for B1
As to B5, the binding result is given as “no binding (tested: 100 nM rhCXCL16)”.

B6: HC4LC3 (antibody, human IgG1, kappa, V domains shown)
VH: EVQLVESGGGLVKPGGSLRLSCAASGFTFSNAVMNWVRQAPGKGLEWVARIRTKPNNYATFYADSVKGRFTFSRDDSKNTLYLQMNSLKTEDTAVYYCTAWTTEGIYWGQGTTVTVSS
VL: DIQMTQSPSSLSASVGDRVTITCKSSQSLLYSGNQKNYLAWYQQKPGQSPKLLIYWASTRQSGVPDRFSGSGSGTDFTLTISSLQAEDFATYYCQQYYDTPWTFGGGTKVEIKR
notes: as for B1
Regarding B6, the binding result is “no binding (tested: 100 nM rhCXCL16)”.

B7: HC3LC2 (antibody, human IgG1, kappa, V domains shown)
VH: EVQLVESGGGLVQPGGSLKLSCAASGFTFSNAVMNWVRQAPGKGLEWVGRIRTKPNNYATFYADSVKGRFTFSRDDSKNTAYLQMNILKTEDTAMYYCTAWTTEGIYWGQGTTVTVSS
VL: DIVMTQSPSSLAVSLGETATINCKSSQSLLYSGNQKNYLAWYQQKPGQPPKLLIYWASTRQSGVPDRFTGSGAGTDFTLTISSVQAEDLAIYYCQQYYDTPWTFGGGTKVEIKR
notes: as for B1
Regarding B7, the binding result was “no binding (tested: 100 nM rhCXCL16)”.

B8: HC1LC1 (antibody, human IgG1, kappa, V domains shown)
VH: QVQLVESGGGVVQPGGSLRLSCAASGFTFSNAVMNWVRQAPGKGLEWVARIRTKPNNYATFYADSVKGRFTFSRDNSKTMLYLQMNSLRAEDTAVYYCTAWTTEGIYWGQGTLVTVSS
VL: DIVMTQSPDSLAVSAGETVTINCKSSQSLLYSGNQKNYLAWYQQKPGQSPKLLIYWASTRQSGVPDRFSGSGSGTDFTLTISSVQAEDVAVYYCQQYYDTPWTFGGGTKVEIKR
notes: as for B1
Consider B8, for which the binding result is recorded as “no binding (tested: 100 nM rhCXCL16)”.

B9: HC3LC5 (antibody, human IgG1, kappa, V domains shown)
VH: EVQLVESGGGLVQPGGSLKLSCAASGFTFSNAVMNWVRQAPGKGLEWVGRIRTKPNNYATFYADSVKGRFTFSRDDSKNTAYLQMNILKTEDTAMYYCTAWTTEGIYWGQGTTVTVSS
VL: DIVMTQSPSSLAVSAGERATINCKSSQSLLYSGNQKNYLAWYQQKPGQSPKLLIYWASTRQSGVPDRFIGSGSGTDFTLTISSLQAEDVAIYYCQQYYDTPWTFGGGTKLELKR
notes: as for B1
On to B9, for which the binding result is on record as “no binding (tested: 100 nM rhCXCL16)”.

B10: HC3LC1 (antibody, human IgG1, kappa, V domains shown)
VH: EVQLVESGGGLVQPGGSLKLSCAASGFTFSNAVMNWVRQAPGKGLEWVGRIRTKPNNYATFYADSVKGRFTFSRDDSKNTAYLQMNILKTEDTAMYYCTAWTTEGIYWGQGTTVTVSS
VL: DIVMTQSPDSLAVSAGETVTINCKSSQSLLYSGNQKNYLAWYQQKPGQSPKLLIYWASTRQSGVPDRFSGSGSGTDFTLTISSVQAEDVAVYYCQQYYDTPWTFGGGTKVEIKR
notes: as for B1
As for B10, the binding result was “no binding (tested: 100 nM rhCXCL16)”.

B11: HC2LC1 (antibody, human IgG1, kappa, V domains shown)
VH: AVQLVESGGGLVQPGGSLKISCAASGFTFSNAVMNWVRQASGKGLEWVGRIRTKPNNYATFYADSVKGRFTISRDDSKNTAYLQMNSLKTEDTAMYYCTAWTTEGIYWGQGTLVTVSS
VL: DIVMTQSPDSLAVSAGETVTINCKSSQSLLYSGNQKNYLAWYQQKPGQSPKLLIYWASTRQSGVPDRFSGSGSGTDFTLTISSVQAEDVAVYYCQQYYDTPWTFGGGTKVEIKR
notes: as for B1
Take B11: the binding result is “no binding (tested: 100 nM rhCXCL16)”.

B12: HC5LC4 (antibody, human IgG1, kappa, V domains shown)
VH: EVQLVESGGGLVQPGGSLKLSCAASGFTFSNAVMNWVRQASGKGLEWVARIRTKPNNYATFYADSVKGRFTFSRDDSKNTAYLQMNSLKTEDTAMYYCTAWTTEGIYWGQGTLVTVSS
VL: DIQMTQSPSSLSASVGDRVTITCKSSQSLLYSGNQKNYLAWYQQKPGQSPKLLIYWASTRQSGVPSRFSGSGSGTDFTLTISSLQPEDLAIYYCQQYYDTPWTFGGGTKLELKR
notes: as for B1
B12: the binding result is “no binding (tested: 100 nM rhCXCL16)”.

B13: HC4LC5 (antibody, human IgG1, kappa, V domains shown)
VH: EVQLVESGGGLVKPGGSLRLSCAASGFTFSNAVMNWVRQAPGKGLEWVARIRTKPNNYATFYADSVKGRFTFSRDDSKNTLYLQMNSLKTEDTAVYYCTAWTTEGIYWGQGTTVTVSS
VL: DIVMTQSPSSLAVSAGERATINCKSSQSLLYSGNQKNYLAWYQQKPGQSPKLLIYWASTRQSGVPDRFIGSGSGTDFTLTISSLQAEDVAIYYCQQYYDTPWTFGGGTKLELKR
notes: as for B1
Consider B13, for which the binding result was “no binding (tested: 100 nM rhCXCL16)”.

B14: HC2LC5 (antibody, human IgG1, kappa, V domains shown)
VH: AVQLVESGGGLVQPGGSLKISCAASGFTFSNAVMNWVRQASGKGLEWVGRIRTKPNNYATFYADSVKGRFTISRDDSKNTAYLQMNSLKTEDTAMYYCTAWTTEGIYWGQGTLVTVSS
VL: DIVMTQSPSSLAVSAGERATINCKSSQSLLYSGNQKNYLAWYQQKPGQSPKLLIYWASTRQSGVPDRFIGSGSGTDFTLTISSLQAEDVAIYYCQQYYDTPWTFGGGTKLELKR
notes: as for B1
Regarding B14, the binding result is “no binding (tested: 100 nM rhCXCL16)”.
